According to patent US20200283529A1 (UNIVERSITY OF BRITISH COLUMBIA, published 2020):

How the values were obtained:
[1] = target: T1, HLA-A*24:02 on FlowPRA Single Antigen beads (human, UniProt P04439-2 25-302 at identity 0.92)); experiment: single antigen FlowPRA bead assay, flow cytometry
T1 construct: Bought HLA class I antigen on One Lambda beads. b2m and peptide are not described
T1 MHC heavy: not shown

[2] = target: T2, HLA-A*23:01 on FlowPRA Single Antigen beads (human, UniProt P13749 25-305 (Pan troglodytes entry), limits assumed); experiment: single antigen FlowPRA bead assay, flow cytometry
T2 construct: Bought HLA class I antigen on One Lambda beads. b2m and peptide are not described
T2 MHC heavy: not shown

- binding result [1]: no binding
- binding result [2]: no binding
B1: BB7.2 antibody (antibody, IgG2b, V domains shown)
VH: QVQLQQSGPELVKPGASVKMSCKASGYTFTSYHIQWVKQRPGQGLEWIGWIYPGDGSTQYNEKFKGKTTLTADKSSSTAYMLLSSLTSEDSAIYFCAREGTYYAMDYWGQGTSVTVSS
VL: DVLMTQTPLSLPVSLGDQVSISCRSSQSIVHSNGNTYLEWYLQKPGQSPKLLIYKVSNRFSGVPDRFSGSGSGTDFTLKISRVEAEDLGVYYCFQGSHVPRTFGGGTKLEIK
notes: also called mouse monoclonal antibody (BB7.2)
